Results taken from article doi:10.1101/2020.07.17.208231, “UMP inhibition and sequential firing in aspartate transcarbamoylase open ways to regulate plant growth” (bioRxiv, 2020).

Legend:
[1] = target: the molecule itself; assay: SEC-MALS; 400 ul purified protein at 1.4 mg/ml on Superdex 200 10/300 in GF buffer (20 mM Tris pH 7.0, 0.1 M NaCl, 2% glycerol, 0.2 mM TCEP); also the UMP-freed sample and the sample pre-incubated with PALA (Supplementary Fig. 4)
[2] = target: the molecule itself; assay: crystal structure; sitting-drop vapor diffusion at room temperature, PEG 3350 conditions; with UMP, apo, with PALA, with PALA and CP, with CP; molecular replacement with PDB 5G1O

| Protein | stoichiometry N [1] | binding result [2] |
| --- | --- | --- |
| Arabidopsis aspartate transcarbamoylase, construct spanning aa 82-390 (atATC) (enzyme, Arabidopsis thaliana, UniProt P49077 82-390, looked up, aspartate transcarbamoylase (ATC; pyrB; At3g20330), Arabidopsis thaliana, aa 82-390 of the 390 aa precursor, i.e. without the N-terminal chloroplast transit peptide; Homotrimer; As purified it carries UMP captured during expression; a UMP-freed form was also made; also called WT; recombinant ATC; source: E. coli BLR(DE3)-pLysS, purified (Ni-sepharose, size-exclusion chromatography); not shown: …) FELSDVIEGKQFDREMLSAIFDVAREMEKIEKSSSQSEILKGYLMATLFYEPSTRTRLSFESAMKRLGGEVLTTENAREFSSAAKGETLEDTIRTVEGYSDIIVMRHFESGAARKAAATANIPVINAGDGPGEHPTQALLDVYTIQSEIGKLDGISVALVGDLANGRTVRSLAYLLAKFKDVKIYFVSPEIVKMKDDIKDYLTSSGVEWEESSDLMEVASKCDVVYQTRIQRERFGERLDLYEAARGKYIVDKDLLGVMQKKAIIMHPLPRLDEITADVDADPRAAYFRQAKNGLFIRMALLKLLLVGW | 3 | – |
| atATC mutant F161A (enzyme, Arabidopsis thaliana, UniProt P49077 82-390, looked up, aspartate transcarbamoylase (ATC; pyrB; At3g20330), Arabidopsis thaliana, aa 82-390 of the 390 aa precursor, with F161A in the CP-loop; Same construct as m1 with the point mutation F161A, made by site-directed mutagenesis; also called atATC-F161A; source: E. coli BLR(DE3)-pLysS, purified (Ni-sepharose, size-exclusion chromatography); not shown: 2.6 kDa fusion tag (from a modified pET28a plasmid)) FELSDVIEGKQFDREMLSAIFDVAREMEKIEKSSSQSEILKGYLMATLFYEPSTRTRLSFESAMKRLGGEVLTTENAREASSAAKGETLEDTIRTVEGYSDIIVMRHFESGAARKAAATANIPVINAGDGPGEHPTQALLDVYTIQSEIGKLDGISVALVGDLANGRTVRSLAYLLAKFKDVKIYFVSPEIVKMKDDIKDYLTSSGVEWEESSDLMEVASKCDVVYQTRIQRERFGERLDLYEAARGKYIVDKDLLGVMQKKAIIMHPLPRLDEITADVDADPRAAYFRQAKNGLFIRMALLKLLLVGW | – | binds |
